Consider one substance from article doi:10.1101/2022.05.02.490369.

The assay addresses RPP1^TIR (residue 83-254) (Arabidopsis) (UniProt F4J339). Nature of the assay: crystal structure.

In the case of “RPP1^TIR (residue 83-254) (from UniProt F4J339 83-254) (domain or fragment)”, the stoichiometry N (usually a count of units in the complex or per binding partner) came to 4.
